Test results from publication PMC10786891, “Massively parallel profiling of RNA-targeting CRISPR-Cas13d”.
Numbering of substitutions follows the chain as printed. In names and notes the source's numbering stands.

T1: EsCas13d, nuclease-dead (Eubacterium siraeum, UniProt B0MS50, R295A;H300A;R849A;H854A)
T1 sequence: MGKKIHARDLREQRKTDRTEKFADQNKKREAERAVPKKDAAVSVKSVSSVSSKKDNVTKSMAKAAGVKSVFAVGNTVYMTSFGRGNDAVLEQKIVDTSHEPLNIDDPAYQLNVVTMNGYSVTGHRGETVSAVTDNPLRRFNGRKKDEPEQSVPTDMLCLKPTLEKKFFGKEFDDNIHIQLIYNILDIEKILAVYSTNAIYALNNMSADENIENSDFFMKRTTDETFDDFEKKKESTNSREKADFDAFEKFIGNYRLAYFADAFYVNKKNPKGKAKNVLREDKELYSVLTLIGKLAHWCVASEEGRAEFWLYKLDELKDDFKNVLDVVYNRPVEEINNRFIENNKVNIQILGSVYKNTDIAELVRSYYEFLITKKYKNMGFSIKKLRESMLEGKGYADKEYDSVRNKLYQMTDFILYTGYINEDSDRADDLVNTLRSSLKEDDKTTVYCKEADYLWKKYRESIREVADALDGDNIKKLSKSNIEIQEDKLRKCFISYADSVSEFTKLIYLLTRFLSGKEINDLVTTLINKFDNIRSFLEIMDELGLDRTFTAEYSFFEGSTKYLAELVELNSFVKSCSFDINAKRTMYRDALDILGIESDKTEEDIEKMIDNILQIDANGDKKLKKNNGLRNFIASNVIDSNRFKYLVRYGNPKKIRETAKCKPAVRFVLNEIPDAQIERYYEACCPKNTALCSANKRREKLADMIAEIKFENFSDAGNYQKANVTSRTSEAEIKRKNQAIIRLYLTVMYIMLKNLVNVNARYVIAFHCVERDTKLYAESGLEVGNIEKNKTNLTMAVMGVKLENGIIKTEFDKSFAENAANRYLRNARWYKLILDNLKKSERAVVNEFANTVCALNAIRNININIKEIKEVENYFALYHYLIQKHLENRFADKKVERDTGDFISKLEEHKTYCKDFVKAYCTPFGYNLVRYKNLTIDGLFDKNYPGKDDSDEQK

B1: target 1 MT 5'PFS GAG 3'PFS AAG (mixed)
RNA 1: CACCCGUGCAAAAAUGCAGGGGUCUAAAACUGAGCGGAUAACCUCUCUAUGG
RNA 2: GGGAAUGGAUCCACAUCUACGAAUUCGAGCCAUAGAGAGGUUAUCCGCUCAAAGAGAUCGGAAGAGCACACGU
B2: target 1 MT 5'PFS GGA 3'PFS UAG (mixed)
RNA 1: B1 RNA 1
RNA 2: B1 RNA 2 with A28G, G29A, A52U
B3: target 1 MT 5'PFS CCA 3'PFS UCU (mixed)
RNA 1: B1 RNA 1
RNA 2: B1 RNA 2 with G27C, A28C, G29A, A52U, A53C, G54U
B4: target 1 MT 5'PFS GGA 3'PFS UAA (mixed)
RNA 1: B1 RNA 1
RNA 2: B1 RNA 2 with A28G, G29A, A52U, G54A
B5: target 1 MT 5'PFS GGA 3'PFS UAC (mixed)
RNA 1: B1 RNA 1
RNA 2: B1 RNA 2 with A28G, G29A, A52U, G54C
B6: target 1 MT 5'PFS GGA 3'PFS UAU (mixed)
RNA 1: B1 RNA 1
RNA 2: B1 RNA 2 with A28G, G29A, A52U, G54U
B7: target 1 insG 3' of 9,insG 3' of 1 (mixed)
RNA 1: B1 RNA 1
RNA 2: GGGAAUGGAUCCACAUCUACGAAUUCGUACCAUAGAGAGGUUAGUCCGCUCAGCCGAGAUCGGAAGAGCACACGU
B8: target 1 MT 5'PFS CCA 3'PFS UCC (mixed)
RNA 1: B1 RNA 1
RNA 2: B1 RNA 2 with G27C, A28C, G29A, A52U, A53C, G54C
B9: target 1 MT 5'PFS CCA 3'PFS UCA (mixed)
RNA 1: B1 RNA 1
RNA 2: B1 RNA 2 with G27C, A28C, G29A, A52U, A53C, G54A
B10: target 1 MT 5'PFS GUG 3'PFS CAU (mixed)
RNA 1: B1 RNA 1
RNA 2: B1 RNA 2 with A28U, A52C, G54U
B11: target 1 MT 5'PFS GUG 3'PFS CAG (mixed)
RNA 1: B1 RNA 1
RNA 2: B1 RNA 2 with A28U, A52C
B12: target 1 MT 5'PFS GUG 3'PFS CAC (mixed)
RNA 1: B1 RNA 1
RNA 2: B1 RNA 2 with A28U, A52C, G54C
B13: target 1 MT 5'PFS GUG 3'PFS CAA (mixed)
RNA 1: B1 RNA 1
RNA 2: B1 RNA 2 with A28U, A52C, G54A
B14: target 1 MT 5'PFS CCA 3'PFS AUA (mixed)
RNA 1: B1 RNA 1
RNA 2: B1 RNA 2 with G27C, A28C, G29A, A53U, G54A
B15: target 1 MT 5'PFS CCA 3'PFS AUG (mixed)
RNA 1: B1 RNA 1
RNA 2: B1 RNA 2 with G27C, A28C, G29A, A53U
B16: target 1 MT 5'PFS GUG 3'PFS UUG (mixed)
RNA 1: B1 RNA 1
RNA 2: B1 RNA 2 with A28U, A52U, A53U
B17: target 1 MT 5'PFS GUG 3'PFS UUC (mixed)
RNA 1: B1 RNA 1
RNA 2: B1 RNA 2 with A28U, A52U, A53U, G54C
B18: target 1 G15C,G17U (mixed)
RNA 1: B1 RNA 1
RNA 2: B1 RNA 2 with A28U, G29A, G35U, G37C, A52C, A53C
B19: target 1 C4U,C7U (mixed)
RNA 1: B1 RNA 1
RNA 2: B1 RNA 2 with A28U, G29A, C45U, C48U, A52C, A53C
B20: target 1 MT 5'PFS CAA 3'PFS AAU (mixed)
RNA 1: B1 RNA 1
RNA 2: B1 RNA 2 with G27C, G29A, G54U
B21: target 1 MT 5'PFS GUG 3'PFS UUA (mixed)
RNA 1: B1 RNA 1
RNA 2: B1 RNA 2 with A28U, A52U, A53U, G54A
B22: target 1 MT 5'PFS CCA 3'PFS AUU (mixed)
RNA 1: B1 RNA 1
RNA 2: B1 RNA 2 with G27C, A28C, G29A, A53U, G54U
B23: target 1 MT 5'PFS GUG 3'PFS UUU (mixed)
RNA 1: B1 RNA 1
RNA 2: B1 RNA 2 with A28U, A52U, A53U, G54U
B24: target 1 MT 5'PFS GUG 3'PFS GUA (mixed)
RNA 1: B1 RNA 1
RNA 2: B1 RNA 2 with A28U, A52G, A53U, G54A
B25: target 1 MT 5'PFS CAG 3'PFS AGC (mixed)
RNA 1: B1 RNA 1
RNA 2: B1 RNA 2 with G27C, A53G, G54C
B26: target 1 MT 5'PFS AAA 3'PFS AGA (mixed)
RNA 1: B1 RNA 1
RNA 2: B1 RNA 2 with G27A, G29A, A53G, G54A
B27: target 1 MT 5'PFS CAG 3'PFS AGU (mixed)
RNA 1: B1 RNA 1
RNA 2: B1 RNA 2 with G27C, A53G, G54U
B28: target 1 MT 5'PFS AAC 3'PFS UUG (mixed)
RNA 1: B1 RNA 1
RNA 2: B1 RNA 2 with G27A, G29C, A52U, A53U
B29: target 1 MT 5'PFS CUA 3'PFS ACA (mixed)
RNA 1: B1 RNA 1
RNA 2: B1 RNA 2 with G27C, A28U, G29A, A53C, G54A
B30: target 1 insA 3' of 21,insC 3' of 13 (mixed)
RNA 1: B1 RNA 1
RNA 2: GGGAAUGGAUCCACAUCUACGAAUUCGUACCAAUAGAGAGCGUUAUCCGCUCACCGAGAUCGGAAGAGCACACGU
B31: target 1 MT 5'PFS CUA 3'PFS ACC (mixed)
RNA 1: B1 RNA 1
RNA 2: B1 RNA 2 with G27C, A28U, G29A, A53C, G54C
B32: target 1 MT 5'PFS CUA 3'PFS ACG (mixed)
RNA 1: B1 RNA 1
RNA 2: B1 RNA 2 with G27C, A28U, G29A, A53C
B33: target 1 MT 5'PFS CUA 3'PFS ACU (mixed)
RNA 1: B1 RNA 1
RNA 2: B1 RNA 2 with G27C, A28U, G29A, A53C, G54U
B34: target 1 MT 5'PFS AGC 3'PFS CUA (mixed)
RNA 1: B1 RNA 1
RNA 2: B1 RNA 2 with G27A, A28G, G29C, A52C, A53U, G54A
B35: target 1 MT 5'PFS UCA 3'PFS CGC (mixed)
RNA 1: B1 RNA 1
RNA 2: B1 RNA 2 with G27U, A28C, G29A, A52C, A53G, G54C
B36: target 1 MT 5'PFS UCA 3'PFS AGU (mixed)
RNA 1: B1 RNA 1
RNA 2: B1 RNA 2 with G27U, A28C, G29A, A53G, G54U
B37: target 1 MT 5'PFS UCA 3'PFS CGG (mixed)
RNA 1: B1 RNA 1
RNA 2: B1 RNA 2 with G27U, A28C, G29A, A52C, A53G
B38: target 1 MT 5'PFS UUG 3'PFS UUA (mixed)
RNA 1: B1 RNA 1
RNA 2: B1 RNA 2 with G27U, A28U, A52U, A53U, G54A
B39: target 1 MT 5'PFS UCA 3'PFS AGG (mixed)
RNA 1: B1 RNA 1
RNA 2: B1 RNA 2 with G27U, A28C, G29A, A53G
B40: target 1 MT 5'PFS AGC 3'PFS CUU (mixed)
RNA 1: B1 RNA 1
RNA 2: B1 RNA 2 with G27A, A28G, G29C, A52C, A53U, G54U

Each binder was assayed against T1, EsCas13d, nuclease-dead (assay: crRNA (strand 1, pre-loaded); Mg2+; 40 mM Tris-HCl pH 7.5, 150 mM NaCl, 6 mM MgCl2, 1 mM DTT, 0.1% Tween-20, 0.2 mg/ml BSA; 25 C; 10 min per concentration, then washed). Settings: tags: His6-TwinStrep-SUMO cleaved; N-terminal SNAP kept (SNAP-Surface 488); label: 3' end held by stalled T7 RNA polymerase.
In the case of B1, the Kd is reported as about 60 nM.
Work on B2 yielded a Kd of 17.6 ± 4.05 nM.
Work on B3 yielded a Kd of 4.9 ± 2.45 nM.
In the case of B4, the Kd is reported as 21.9 ± 4.9 nM.
B5 showed a Kd of 14 ± 6 nM.
Work on B6 yielded a Kd of 11.7 ± 1.5 nM.
Work on B7 yielded a Kd of 19.2 ± 2.3 nM.
Binder B8 has a Kd of about 4.5 nM.
In the case of B9, the Kd is reported as 6.55 ± 1.8 nM.
B10 gave a Kd of 18.4 ± 2 nM.
Work on B11 yielded a Kd of 22.8 ± 2 nM.
With B12 the Kd was 26.6 ± 2.8 nM.
For B13, the Kd was 31 ± 4.5 nM.
B14 showed a Kd of 6.1 ± 1.7 nM.
In the case of B15, the Kd is reported as about 8.15 nM.
In the case of B16, the Kd is reported as 7.86 ± 0.47 nM.
B17 showed a Kd of 11.6 ± 0.9 nM.
B18 was tested, and the Kd was 90 ± 40 nM.
With B19 the Kd was 29 ± 5 nM.
B20 showed a Kd of about 25.5 nM.
In the case of B21, the Kd is reported as 10.6 ± 0.65 nM.
With B22 the Kd was 2.62 ± 0.595 nM.
Work on B23 yielded a Kd of 9.05 ± 0.495 nM.
B24 gave a Kd of 12.2 ± 1.6 nM.
B25 was tested, and the Kd was 20.5 ± 9 nM.
For B26, the Kd was 33 ± 12.5 nM.
B27 was tested, and the Kd was 57 ± 22.5 nM.
Work on B28 yielded a Kd of 15.3 ± 3.3 nM.
In the case of B29, the Kd is reported as 9.65 ± 2.5 nM.
B30 gave a Kd of 32 ± 4 nM.
B31 gave a Kd of 5 ± 1.85 nM.
Work on B32 yielded a Kd of 6.05 ± 1.8 nM.
In the case of B33, the Kd is reported as 4.95 ± 1 nM.
With B34 the Kd was 13.9 ± 4.8 nM.
In the case of B35, the Kd is reported as 10.8 ± 3.85 nM.
B36 showed a Kd of 24.6 ± 5.5 nM.
Work on B37 yielded a Kd of 52.5 ± 25 nM.
With B38 the Kd was 20.1 ± 3.2 nM.
Work on B39 yielded a Kd of about 100 nM.
B40 was tested, and the Kd was 9.35 ± 3.2 nM.
